According to patent US20200262927A1 (OXFORD BIOTHERAPEUTICS, published 2020):

T1: human CRTAM on in vitro activated human T cells (human, UniProt O95727 18-393)
T1 sequence: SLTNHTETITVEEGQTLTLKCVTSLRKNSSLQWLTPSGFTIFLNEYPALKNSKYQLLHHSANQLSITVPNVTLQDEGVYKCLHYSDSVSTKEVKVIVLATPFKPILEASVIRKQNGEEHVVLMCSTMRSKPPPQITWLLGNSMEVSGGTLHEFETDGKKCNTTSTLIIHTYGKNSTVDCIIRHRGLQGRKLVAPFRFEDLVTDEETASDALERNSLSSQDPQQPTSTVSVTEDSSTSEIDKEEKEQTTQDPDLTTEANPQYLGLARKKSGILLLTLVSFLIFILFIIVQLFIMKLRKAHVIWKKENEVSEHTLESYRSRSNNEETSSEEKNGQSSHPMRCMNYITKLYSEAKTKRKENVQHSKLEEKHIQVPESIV


Legend:
[1] = target: human CRTAM on in vitro activated human T cells (human) (UniProt O95727); test: flow cytometry on in vitro activated human T cells, MFI against antibody concentration
[2] = target: T1, human CRTAM on in vitro activated human …; test: flow cytometry on in vitro activated human T cells, goat anti-rat IgG-RPE detection, MFI against antibody concentration
Experimental: Following this the cells were cultured with anti-CD3/anti-CD28 activation beads (Cat #11132D, Thermo Fisher, Waltham, Mass.) for 24 hours before FACS analysis (data not shown).
Fluorescence-activated cell sorting (FACS) analysis was performed in 96-well plate format according to standard protocols. Activated T cells were prepared as above. All subsequent steps of the staining protocol were carried out on ice with ice-cold reagents except for the centrifugation steps which was done at RT. Three-fold serial dilutions of the antibodies, were prepared in FACS buffer to give a 12-point titration curve with final concentrations ranging from 133 nM to 1 pM. The corresponding hybridoma supernatants, isotype controls, and positive control antibodies were diluted in ice cold FACS buffer to be tested at a single point with a final concentration of 30 nM. The antibody dilutions were each dispensed (100 μL/well) into one well for each cell line. […] The final cell pellets were re-suspended in […]+50 μl of 4% paraformaldehyde and fixed until ready to be acquired in a Flow cytometer. […] Geometric mean fluorescence intensity (GMFI or Geo Mean) of each sample was determined using a Guava Easycyte Plus high-throughput flow cytometer (96 well plates) and raw data were analyzed using the Guava Cytosoft Pro Software Module, version 2.2.2 (Millipore, Billerica Mass.). […]

| EC50 (read off the curve) [1] | EC50 (read off the curve) [2] | Molecule |
| --- | --- | --- |
| 2 µg/mL |  | commercially available anti-CRTAM antibody CR24.1 (BioLegend) |
|  | ~0.02 µg/mL | 5A11 parental rat monoclonal anti-CRTAM antibody (antibody, V domains shown, Rat monoclonal from a hybridoma, detected with goat anti-rat IgG; also called antibody 5A11; BUH-5A11-F2) VH: AVQLVESGGGLVQPKESLKISCAASGFTFSDAAMYWVRQAPGKGLEWVARIRTKTNNYAAHYVESVKGRFTVSRDDSKSMVYLQMDNLKTDDTAMYYCTSVPQGTQDYWGQGVMVTVSS VL: SYELIQPPSASVTLGNTVSLTCVGDELSKRYVQWSQQKPDKTIVSVIYKDSERPSGISDRFSGSSSGTTATLTIHGTLAEDEADYYCLSTYSDDNLPVFGGGTKLTVL |
